Assay results: patent US20220275390A1 (TRUSTEES OF PRINCETON UNIVERSITY, published 2022)

T1: S1Cr_D23A
T1 construct: variant of m7
T1 chain: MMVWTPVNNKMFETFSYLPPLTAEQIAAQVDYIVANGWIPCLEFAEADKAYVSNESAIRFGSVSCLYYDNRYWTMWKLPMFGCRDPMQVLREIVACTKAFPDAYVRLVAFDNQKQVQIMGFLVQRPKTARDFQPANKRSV

T2: S1Cr_D23A+E24A
T2 construct: variant of m7
T2 chain: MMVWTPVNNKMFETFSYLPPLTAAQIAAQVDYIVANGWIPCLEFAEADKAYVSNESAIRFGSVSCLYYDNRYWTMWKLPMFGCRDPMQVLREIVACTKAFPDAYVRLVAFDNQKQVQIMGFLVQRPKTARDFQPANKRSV

T3: S1Cr_D23A+E24A+R91A
T3 construct: variant of m7
T3 chain: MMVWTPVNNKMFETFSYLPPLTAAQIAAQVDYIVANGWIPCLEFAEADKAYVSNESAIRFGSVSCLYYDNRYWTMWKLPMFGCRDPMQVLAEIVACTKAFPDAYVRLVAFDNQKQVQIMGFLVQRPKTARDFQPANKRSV

T4: S1Cr_M87D/V94D
T4 construct: variant of m7
T4 chain: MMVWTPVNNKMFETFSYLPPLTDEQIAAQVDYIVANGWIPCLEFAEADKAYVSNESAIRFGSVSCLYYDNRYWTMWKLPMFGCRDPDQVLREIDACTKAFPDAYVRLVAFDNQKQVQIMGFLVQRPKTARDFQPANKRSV


Assays:
[1] = molecular target: S1Cr_M87D (Chlamydomonas reinhardtii); experiment: cell-based or functional assay
[2] = molecular target: S1Cr_V94D (Chlamydomonas reinhardtii); experiment: cell-based or functional assay
[3] = molecular target: Chlamydomonas reinhardtii Rubisco small subunit 1 (Chlamydomonas reinhardtii, UniProt P00873 46-185); experiment: cell-based or functional assay
[4] = molecular target: T1, S1Cr_D23A; experiment: yeast two-hybrid, EPYC1 as BD and SSU variant as AD
Source text: (§1) FIGS. 9A-9C show the results of a yeast two-hybrid (Y2H) assay to measure the interaction between EPYC1 and Rubisco SSU variants. […] The images shown were taken following three days of cell growth. The Rubisco SSU residues that form salt bridges with EPYC1 residues are bolded (D23, E24, and R91) and the residues that form the hydrophobic pocket with EPYC1 residues are bolded and italicized (M87 and V94). The “Control” images were taken from cells grown for three days on SD-L-W media and the “Test” images were taken from cells grown for three days on SD-L-W-H with 3-AT. Growth of yeast cells expressing the indicated EPYC1 and Rubisco SSU variants was measured after three days on SD-L-W-H with varying 3-AT concentrations. The highest concentration of 3-AT (0, 1, 2.5, 5, 10, and 20 mM) permissive for the growth of each EPYC1 and Rubisco SSU variant combination is shown, as indicated in the “Key” on the right.
(§2) Mutagenesis of EPYC1, Mutagenesis of Rubisco, Yeast Two-hybrid, Peptide Arrays and SPR Assays To determine the importance of individual EPYC1 residues for binding to Rubisco, the impact on Rubisco binding of every possible single amino acid substitution for EPYC1 RBM 2 was determined (FIG. 8). To determine the importance of individual Rubisco residues for binding to EPYC1, targeted mutations of the amino acids identified from atomic modeling were tested in a yeast two-hybrid assay as in van Nues and Beggs (Genetics 157: 1451-1467, 2000). Peptide arrays and SPR assays were performed as in Example 1.

[5] = molecular target: T2, S1Cr_D23A+E24A; experiment: as above
Source text: as §1, §2

[6] = molecular target: T3, S1Cr_D23A+E24A+R91A; experiment: as above
Source text: as §1, §2

[7] = molecular target: T4, S1Cr_M87D/V94D; experiment: yeast two-hybrid, Control SD-L-W, Test SD-L-W-H with 3-AT (concentration not given)
Source text: as §1
Mutagenesis of EPYC1, Mutagenesis of Rubisco, Yeast Two-hybrid, Peptide Arrays and SPR Assays To determine the importance of individual EPYC1 residues for binding to Rubisco, the impact on Rubisco binding of every possible single amino acid substitution for EPYC1 RBM 2 was determined (FIG. 8). […]

[8] = molecular target: T5, Chlamydomonas reinhardtii Rubisco holoenzyme (L8S8) (Chlamydomonas reinhardtii, UniProt P00877 3-475); experiment: SPR, steady-state fit
T5 construct: Purified from C. reinhardtii strain cMJ030 (sucrose gradient, anion exchange); also called purified Rubisco; Cr L8S8 Rubisco

[9] = molecular target: T5, Chlamydomonas reinhardtii Rubisco …; experiment: SPR; highest binding affinity of all peptides tested
[10] = molecular target: T5, Chlamydomonas reinhardtii Rubisco …; experiment: SPR, Rubisco immobilized, peptide at 0-4.0 mM in solution (FIG. 4C)
Source text: FIGS. 4A-4C show the EPYC1 fragment that was used to generate the cryoelectron microscopy structure shown in FIGS. 5A-5D, as well as the binding affinity of the EPYC1 fragment for Rubisco. […] The four nearly identical repeats (Repeats 1-4), flanked by short N- and C- termini are indicated. The dark grey boxes represent the ten RBMs on EPYC1. The dark grey bar above the boxes (“EPYC1 peptide”) spans RBM 2 of EPYC1 and represents the 24 amino acid EPYC1 fragment (SEQ ID NO: 51) that was used to generate the cryoelectron microscopy structure of Rubisco bound to the RBM 2 EPYC1 fragment shown in FIGS. 5A-5D. FIGS. 4B-4C provide results of SPR experiments to determine the binding affinity of the 24 amino acid EPYC1 fragment diagramed in FIG. 4A for Rubisco. […] The response difference (Resp. Diff., in RU) is shown on the y-axis.
Surface Plasmon Resonance (SPR) Assay Rubisco was immobilized on a surface and peptides in solution were flowed over the surface. Surface plasmon measurements of binding of individual peptides to Rubisco were assayed (FIG. 3B).

highest 3-AT concentration permissive for growth (Y2H), box pattern read against the printed key [1] | highest 3-AT concentration permissive for growth (Y2H), box pattern read against the printed key [2] | highest 3-AT concentration permissive for growth (Y2H), box pattern read against the printed key [3] | binding result [4] | binding result [5] | binding result [6] | binding result [7] | Ka [8] | Kd [9] | Kd [10] | Binder
0 mM 3-AT | 0 mM 3-AT | 20 mM 3-AT | no binding | no binding | no binding | no binding | – | – | – | Chlamydomonas reinhardtii Essential Pyrenoid Component 1 (EPYC1) (other, also called WT EPYC1) MATISSMRVGAASRVVVSGRVKTVKVAARGSWRESSTATVQASRASSATNRVSPTRSVLPANWRQELESLRNGNGSSSAASSAPAPARSSSASWRDAAPASSAPARSSSASKKAVTPSRSALPSNWKQELESLRSSSPAPASSAPAPARSSSASWRDAAPASSAPARSSSSKKAVTPSRSALPSNWKQELESLRSSSPAPASSAPAPARSSSASWRDAAPASSAPARSSSASKKAVTPSRSALPSNWKQELESLRSNSPAPASSAPAPARSSSASWRDAPASSSSSSADKAGTNPWTGKSKPEIKRTALPADWRKGL
– | – | – | – | – | – | – | 324 M⁻¹ | 3 mM | 3.09 mM | TNRVSPTRSVLPANWRQELESLRN (also called EPYC1 peptide; RBM 2 EPYC1 fragment) [24 amino acid EPYC1 fragment spanning RBM 2]
